We go through five substances from patent US20070196883A1, “ENZYME” (UNIVERSITY OF DUNDEE, priority 1999, published 2007).

Assay [1] addresses T1, endogenous PDK1 (Homo sapiens, UniProt O15530).
T1 construct: endogenous in cells; host or cells: 293 cells
T1 sequence (O15530 1-556): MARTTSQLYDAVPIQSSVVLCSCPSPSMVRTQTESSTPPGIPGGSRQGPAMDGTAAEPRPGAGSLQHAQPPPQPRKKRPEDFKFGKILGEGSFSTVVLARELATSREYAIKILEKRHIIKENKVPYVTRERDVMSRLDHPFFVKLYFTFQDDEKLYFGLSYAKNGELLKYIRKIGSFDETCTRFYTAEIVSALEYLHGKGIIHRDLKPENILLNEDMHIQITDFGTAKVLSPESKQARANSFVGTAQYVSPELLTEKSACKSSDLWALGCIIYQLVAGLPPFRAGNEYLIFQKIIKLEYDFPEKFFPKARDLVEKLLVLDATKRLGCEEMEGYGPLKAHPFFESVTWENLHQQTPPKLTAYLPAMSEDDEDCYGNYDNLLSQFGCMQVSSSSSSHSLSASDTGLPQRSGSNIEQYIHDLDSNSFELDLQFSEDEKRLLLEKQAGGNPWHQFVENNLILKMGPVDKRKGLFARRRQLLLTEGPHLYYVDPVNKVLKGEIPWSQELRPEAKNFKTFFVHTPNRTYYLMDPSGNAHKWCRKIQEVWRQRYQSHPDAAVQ
As to the kind of experiment: Association of endogenous PDK1 with GST-PIF proteins purified from 293 cells. The class given is binding. To be noted: expressed in 293 cells, glutathione-Sepharose purified; PDK1 immunoblot and activity. The protocol: FIG. 3. Mapping the residues on PIF that are required for the interaction with PDK1. (A) 293 cells were transiently transfected with DNA constructs expressing either the wild type GST-PIF or the indicated point mutations of this protein. The cells were lysed and the GST fusion proteins purified by affinity chromatography on glutathione-Sepharose beads. Each GST-fusion protein was incubated for 30 min at 30° C. with GST-S473D-PKBα and MgATP in the presence or absence of phospholipid vesicles containing 100 μM PtdCho, 100 μM PtdSer, 10 μM sn-1-stearoyl-2-arachidonoyl-D-PtdIns(3,4,5)P3, and the increase in specific activity of GST-S473D-PKBα was determined relative to a control incubation in which the GST fusion protein was omitted. The basal activity of GST-S473D-PKBα was 3.5 U/mg. 2 μg of each protein was electrophoresed on a 10% SDS/polyacrylamide gel and either immunoblotted using a PDK1 antibody raised against whole protein to detect any endogenous PDK1, or stained with Coomassie blue to establish the level of expression of the GST-PIF protein. Similar results were obtained in 5 separate experiments using 2 or more preparations of the wild type and mutant GST-PIF proteins. (B) Yeast harbouring the pAS2-1 wild type PDK1 vector (“PDK1-Vector”) or the empty pAS2-1 vector (“Vector”) were transformed with pGAD10 plasmid coding for the expression of the wild type PIF or the indicated mutants of PIF. The resulting yeast strain was grown on SD-Leu-Trp-Ura-His+3-AT medium which only permits growth of yeast constructs in which GST-PIF and PDK1 are capable of interacting.
Expression of GST-fusion proteins in 293 cells. Up to twenty 10 cm diameter dishes of 293 cells were cultured and each dish transfected with 20 μg of pEBG2T DNA encoding the desired GST-fusion protein using a modified calcium phosphate method. In experiments described in FIG. 1 in which Myc-PDK1 constructs (pCMV5 vector) were coexpressed with GST-PIF (pEBG2T vector) or GST alone (empty pEBG2T vector) 10 μg of each construct was used. […]
A general note: A western blot detects proteins with antibodies after separation by electrophoresis.

Assay [2] addresses T2, PDK1 (Homo sapiens, UniProt O15530).
T2 construct: expressed in transfected cells; host or cells: yeast strain Y166
T2 sequence (O15530 428-556): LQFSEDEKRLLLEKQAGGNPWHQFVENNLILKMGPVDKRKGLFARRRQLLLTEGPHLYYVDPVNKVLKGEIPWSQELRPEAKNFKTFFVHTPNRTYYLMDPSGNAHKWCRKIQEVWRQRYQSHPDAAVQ
Nature of the assay: Yeast two hybrid interaction of PIF with PDK1. The class given is binding. An excerpt: (§1) FIG. 1. Two hybrid interaction of PIF with the kinase domain of PDK1. Yeast were transformed with a pGAD10 plasmid (LEU2) harbouring the C-terminal 77 amino acids of PRK2 (termed PIF) in the presence of either a pAS2-1 plasmid (TRP1) coding for the expression of the wild type PDK1, the kinase domain of PDK1 (residues 1 to 404) or the PH domain of PDK1 (residues 428 to 556) or the empty pAS2-1 vector as a control (denoted by—(A). The position on the plate of each yeast strain is indicated in (A). In (B) the yeast are grown on SD-Leu and Trp deficient media in which all the strains of yeast are capable of growing independently of whether PIF is interacting with PDK1. An interaction between PIF and PDK1 leads to the expression of reporter genes coding for URA3 and HIS1 that will enable growth on SD-Leu-Trp-Ura-His+3-AT medium (C) as well as the induction of β-galactosidase gene expression (D). Alignment of the amino acid sequence of the C-terminal 77 amino acids of PRK2 with the equivalent region of AGC subfamily kinases indicated (E). Identical residues are denoted by white-on-black letters, and similar residues by grey boxes. PRK2 (SEQ ID NO:14; PRK1 (SEQ ID NO:15); PKBα (SEQ ID NO:16); P70S6k (SEQ ID NO:17); SGK (SEQ ID NO:18); PKCζ (SEQ ID NO:19); PKCα (SEQ ID NO:20); PKCβ (SEQ ID NO:21).
(§2) Myc-tagged human PDK1, kinase domain of PDK1 (residues 1-404) and the PH domain of PDK1 (428 to 556) were subcloned into the EcoRI/SalI of the yeast pAS2-1 vector. A yeast two hybrid screen was carried out using a human skeletal muscle library subcloned into the pGAD10 vector (Clontech) transformed into the yeast strain Y166. 4×10^6 yeast cells were transformed with pGAD10 library constructs and PDK1 constructs in the pAS2-1 vector. […] In this system interacting clones from the library are able to grow in medium lacking histidine and uracil and express β-galactosidase which was detected using the Clontech protocol. pGAD10 plasmids from interacting clones were isolated transferred to E. coli, and sequenced. […]

The target of assay [3] is T3, PDK1 (Homo sapiens, UniProt O15530).
T3 construct: expressed in transfected cells; host or cells: yeast strain Y166
T3 sequence (O15530 1-556): T1 sequence (O15530 1-556)
Nature of the assay: Yeast two hybrid interaction of PIF with PDK1. The class given is binding.
Excerpt: as §1, §2
This is another data set of the same source.

Assay [4] concerns the target T4, PDK1 (Homo sapiens, UniProt O15530).
T4 construct: expressed in transfected cells; host or cells: yeast strain Y166
T4 sequence (O15530 1-404): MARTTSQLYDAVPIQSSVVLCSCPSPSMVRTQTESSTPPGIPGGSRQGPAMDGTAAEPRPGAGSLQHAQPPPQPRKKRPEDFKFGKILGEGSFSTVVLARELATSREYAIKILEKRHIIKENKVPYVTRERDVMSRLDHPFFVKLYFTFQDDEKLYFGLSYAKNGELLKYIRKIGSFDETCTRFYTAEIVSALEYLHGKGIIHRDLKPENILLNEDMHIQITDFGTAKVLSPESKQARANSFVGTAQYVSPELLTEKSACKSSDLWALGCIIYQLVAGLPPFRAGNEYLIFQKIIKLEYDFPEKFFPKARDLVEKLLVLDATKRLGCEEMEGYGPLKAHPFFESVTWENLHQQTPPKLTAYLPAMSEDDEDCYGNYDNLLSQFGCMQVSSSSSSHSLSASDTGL
As to the kind of experiment: Yeast two hybrid interaction of PIF with PDK1. The assay is classed as binding.
Excerpt: as §1, §2
This is another data set of the same source.

Assay [5] deals with PDK1. Nature of the assay: Activation of GST-ΔPH-PKBα by PDK1 with or without PIF and phosphoinositide. The assay is classed as biochemical. Conditions: absence of PtdIns(3,4,5)P3. The protocol: FIG. 8. Maximal activation of PKB by PDK1/PIF requires PtdIns(3,4,5)P3 to interact with both PKB and PDK1. […] The basal activity of GST-ΔPH-PKBα was 3.0 U/mg.
Measurement of PKBα activation after incubation with GST-PIF. This assay was carried out in 2 stages, as described previously; briefly, in the first, GST-PKBα was incubated with GST-PIF (or other indicated PDK1 proteins in the presence or absence of peptides) in the presence of MgATP and phospholipid vesicles.
In Stage 1, an 15 μl reaction mixture was set up containing 66.5 mM Tris/HCl pH 7.5, 0.13 mM EGTA, 0.13% (by vol) 2-mercaptoethanol, 3.3 μM PKI, 1.3 μM microcystin-LR, 13.3 mM Mg(Ac)2, 133 μM unlabelled ATP, 0.4 μM GST-PKBA, 133 μM PtdSer, 133 μM PtdCho in the presence or absence of 13.3 μM PtdIns(3,4,5)P3. The assay was initiated by the addition of 5 μl of 0.2 mg/ml GST-PIF (or other indicated proteins or peptides), after incubation for 30 min at 30° C., stage 2 of the assay was initiated by the addition of 30 μl of a mixture made up of Buffer B containing 2.5 μM PKI, 1 μM microcystin-LR, 10 mM Mg(Ac)2, 100 μM [γ^32P]ATP (200-400 cpm/pmol), 100 μM of the peptide RPRTAAF (SEQ ID NO:13) and 1.25% (by vol) Triton X-100. After 10 min at 30° C., the reactions were terminated by spotting the reaction mixture on to P81 phosphocellulose paper. The papers were washed in 75 mM phosphoric acid and analysed as described previously. A control reaction in which GST-PKBα was omitted was taken as the blank and was always less than 5% of the activity measured in the presence of GST-PKBα. The basal GST-PKBα activity is the activity measured in the absence of PDK1. 1 Unit of GST-PKBα activity was that amount of enzyme required to catalyse the phosphorylation of 1 nmol of the peptide RPRTAAF (SEQ ID NO:13) in 1 min. The assays were linear with time up to a final concentration of 3 U/ml of PDK1 activity in the assay.

Assay [6] concerns the target T5, His-PDK1 (Homo sapiens, UniProt O15530).
T5 construct: made in house; host or cells: Sf21 insect cells (baculovirus, pFASTBAC HTb)
T5 sequence (O15530 1-556): T1 sequence (O15530 1-556)
Nature of the assay: Surface Plasmon Resonance (BiaCore) binding of His-PDK1 to GST-PIF / Region B peptide. On the procedure: FIG. 12. Quantitative analysis of the binding of PDK1 to PIF. Surface Plasmon Resonance measurements were carried out on a BiaCore instrument as described in the methods section. […] The responses at steady state binding were recorded. […] All data are single determinations from a representative experiment that was repeated at least 3 times with similar results.
BiaCore measurements. GST-PIF was coupled through amine groups to the Sensor Chip CM5 according to the manufacturer's instructions. […] The 24 residue peptide overlapping Region B was biotinylated through its C-terminal Cys and bound to Avidin coated Sensor Chip SA. […] The decrease in steady state binding was used to determine the Kd of interaction between PDK1 and the peptide, according to the […] relationship. The measure of response in our experiments is termed RU; 1000 RU=1 ng/mm^2 of protein bound to the surface.
For orientation: In SPR one partner is held on a chip, and binding of the other changes the refractive index at the surface.

pKd: −log10 of the molar value. Read-outs that look alike come from different tables or passages of the source. Ends that are not written are not given here.

For the substance “F977: GST-PIF mutant, F977 mutated to Ala [Lipid F977]”, in assay [1], the “association of endogenous PDK1 with GST-PIF protein” value is given as “completely abolished”.
The same measure, in the same setting: as for “Y979: GST-PIF mutant, Y979 mutated to Ala [Lipid Y979]”, the entry is “completely abolished”.
On to PIF: C-terminal 77 amino acids of PRK2, for which the “two hybrid interaction with the PH domain of PDK1” value in assay [2] is on record as “not”. In addition, the “two hybrid interaction with full length PDK1” value in assay [3] is “positive interaction”. Also, in assay [4], the “two hybrid interaction with the isolated kinase domain of PDK1” value is listed as “positive interaction”. Besides, the “inhibition of the catalytic activity of PDK1” value in assay [5] is on record as approximately 2 fold.
Regarding “F974: GST-PIF mutant, F974 mutated to Ala [Lipid F974]”, the “association of endogenous PDK1 with GST-PIF protein” value in assay [1] is given as “completely abolished”.
One may read the pKd as −log10 of the Kd, conventionally taken in molar units. Consider “REPRILSEEEQEMFRDFDYIADWC [Region B peptide]”, for which the pKd was 5.82 in assay [6] (His-PDK1 0.5 μM mixed with free peptide, injected over immobilised peptide, read-out: Kd from competition by addition of free peptide); 6.10 in assay [6] (immobilised and biotinylated 24 residue peptide, His-PDK1 injected, read-out: Kd).
